{"source": "patent US10857214B2", "about": "“Compositions and methods for treating gluten intolerance and disorders arising therefrom” (Codexis, Inc., priority 2015, dated 2020)", "molecules": {"B1": {"name": "neprosin: 29 kDa prolyl endoprotease isolated from Nepenthes pitcher fluid (fraction 2), SEQ ID NO.: 1 (protein)", "chain": "MQAKFFTFVILSSVFYFNYPLAEARSIQARLANKPKGTIKTIKGDDGEVVDCVDIYKQPAFDHPLLKNHTLQMQPSSYASKVGEYNKLEQPWHKNGECPKGSIPIRRQVITGLPVVKKQFPNLKFAPPSANTNHQYAVIAYFYGNASLQGANATINIWEPNLKNPNGDFSLTQIWISAGSGSSLNTIEAGWQVYPGRTGDSQPRFFIYWTADGYTSTGCYDLTCPGFVQTNNYYAIGMALQPSVYGGQQYELNESIQRDPATGNWWLYLWGTVVGYWPASIYNSITNGADTVEWGGEIYDSSGTGGFHTTTQMGSGHFPTEGYGKASYVRDLQCVDTYGNVISPTANSFQGIAPAPNCYNYQFQQGSSELYLFYGGPGCQ"}, "B2": {"name": "recombinant nepenthesin II: recombinant aspartic protease of Nepenthes, SEQ ID NO.: 20 (protein)", "chain": "QSSSGIETPVYAGDGEYLMNVAIGTPDSSFSAIMDTGSDLIWTQCEPCTQCFSQPTPIFNPQDSSSFSTLPCESQYCQDLPSETCNNNECQYTYGYGDGSTTQGYMATETFTFETSSVPNIAFGCGEDNQGFGQGNGAGLIGMGWGPLSLPSQLGVGQFSYCMTSYGSSSPSTLALGSAASGVPEGSPSTTLIHSSLNPTYYYITLQGITVGGDNLGIPSSTFQLQDDGTGGMIIDSGTTLTYLPQDAYNAVAQAFTDQINLPTVDESSSGLSTCFQQPSDGSTVQVPEISMQFDGGVLNLGEQNILISPAEGVICLAMGSSSQLGISIFGNIQQQETQVLYDLQNLAVSFVPTQCGAS"}, "B3": {"name": "recombinant nepenthesin I: recombinant aspartic protease of Nepenthes, SEQ ID NO.: 21 (protein)", "chain": "NGPSGVETSVYAGDGEYLMNLSIGTPAQPFSAIMDTGSDLIWTQCQPCTQCFNQSTPIFNPQGSSSFSTLPCSSQLCQALSSPTCSNNFCQYTYGYGDGSETQGSMGTETLTFGSVSIPNITFGCGENNQGFGQGNGAGLVGMGRGPLSLPSQLDVTKFSYCMTPIGSSTPSNLLLGSLANSVTAGSPNTTLIQSSQIPTFYYITLNGLSVGSTRLPIDPSAFALNSNNGTGGIIIDSGTTLTYFVNNAYQSVRQEFISQINLPVVNGSSSGFDLCFQTPSDPSNLQIPTFVMHFDGGDLELPSENYFISPSNGLICLAMGSSSQGMSIFGNIQQQNMLVVYDTGNSVVSFASAQCGAS"}}, "key": {"[1]": {"tested_on": "Nepenthes enzymes", "experiment": "enzyme inhibition testing, BSA digestion by Nepenthes enzymes, SDS-PAGE", "type": "biochemical", "conditions": "BSA 1 mg/ml, 0.12 μM Nepenthes enzymes, 15 min at 37° C.; inhibitors at 1 mM", "protocol": "Inhibitors: PMSF (phenylmethylsulfonyl fluoride), P (pepstatin), L (leupeptin), E (EDTA and EGTA), DTT (dithiothreitol), ZPP (Z-Pro-Pro-aldehyde-dimethyl acetal). All inhibitor concentrations at 1 mM except where noted. Extract: fluid protein extract, M: lane markers. For enzyme inhibition testing, bovine serum albumin (1 mg/ml) was digested with 0.12 μM Nepenthes enzymes for 15 min at 37° C., quenched by brief boiling and then analyzed by 10% SDS-PAGE. The enzymes were pretreated with controls and inhibitors at 4° C. for 2 days prior to digestion experiments. PMSF, pepstatin, leupeptin, EDTA, EGTA, DTT from Sigma-Aldrich, and ZPP (Z-Pro-Pro-aldehyde-dimethyl acetal) from Bachem."}, "[2]": {"tested_on": "protein standards", "experiment": "cleavage preferences on protein standards, LC-MS/MS", "type": "biochemical", "protocol": "C-terminal cleavage preferences (P1 position) as a function of storage time at elevated temperature. Fluid concentrate was incubated at 37° C. for 0-7 days. […] Data were collected from 2-minute in-solution digestions of protein standards at 37° C. (pH 2.5), and cleavage preferences were determined using LC-MS/MS methods. For each amino acid, cleavage preferences were estimated by calculating the number observed terminal residues relative to the total number of residues, in percent.\nData were generated and collected as described for FIG. 1A.\nData are shown as relative % cleavage to the total, as defined above, using LC-MS/MS data from a set of protein standards. Samples were digested in solution for 5 minutes at 37° C. in this comparison, for all three enzyme preparations.\nData are provided as described for FIG. 1C.\nData was generated using HCD fragmentation on an LC-Orbitrap Velos instrument, and data searched against the sequence of APLF in Mass Spec Studio assuming no enzyme specificity, and results were cut off at a peptide false discovery rate (FDR) of 0.5%. Figure discloses SEQ ID NO: 87."}, "[3]": {"tested_on": "crude gliadin", "experiment": "SDS-PAGE and proteomic LC-MS/MS analysis of crude gliadin digests", "type": "biochemical, Triticum aestivum", "conditions": "crude gliadin slurry digested with purified neprosin alone", "protocol": "Digestions at pH 2.5 and 37° C., for 90 min. All concentrations in μM. M: Molecular weight markers, and gliadin: total crude gliadin in the absence of protease. […] Peptide data from LC-MS/MS runs, with intensities obtained using Protein Deconvolution 1.0. […] A stock gliadin slurry of 20-50 mg/ml was prepared in acidic solution (100 mM glycine HCl, pH 2.5) and briefly sonicated to further break up large particulates and promote suspension. Digestions of 10 mg/mL gliadin slurries were initiated by addition of enzyme (pepsin, fluid enzymes or both) and held at 37° C. with gentle rotation. Digest progress was monitored by gravimetric analysis, optical transmission, SDS-PAGE and mass spectrometry. For gravimetric analysis, digests were quenched by boiling and treated with TCA/chloroform, followed by centrifugation to recover undigested or poorly digested protein. For monitoring with optical transmission, digestion reactions were conducted in 96-well plate with ≥3 replicates of each reaction condition, and turbidity monitored at 595 nm at 37° C. every 2 minutes, for 90 minutes (SpectraMax plate reader, Molecular Devices). The plate was shaken at medium speed briefly between measurements. The digests were quenched after 90 min reaction by boiling for 10 minutes (confirmed to have no impact on digestion profile, a posteriori). An aliquot of the reaction mixture was analyzed on an 8% SDS-PAGE gel. The remaining amount was centrifuged and the supernatant was analyzed by mass spectrometry. Supernatant was analyzed by data-dependent LC-MS/MS, in two 1-hour reversed phase gradient runs, configured for top-10 ion selection using CID in a high/low configuration. In one run, ion selection was restricted to 2+ and higher charge states. In the other run, ion selection was applied to 1+ charge states only. Data from both runs were combined and searched against all UniprotKB/Swiss-Prot entries for gliadin and glutenin from Triticum aestivum (25 proteins), using Mascot v2.3, configured for non-specific digestions and filtered for peptide hits with p<0.05. For estimation of peptide size distribution, all LC-MS spectra were combined and deconvoluted in Protein Deconvolution v1.0, with appropriate settings. For label-free quantitative analysis using the subset of the digest identified in the database search, the hit list was combined with the raw data in Mass Spec Studio and used to generate a set of peptide ion chromatograms, integrated over all isotopes to determine a weight-average intensity for each peptide sequence identified."}, "[4]": {"tested_on": "NOD DQ8 mice", "experiment": "transgenic NOD/HLA-DQ8 mouse model of gliadin sensitivity"}}, "note": "Square brackets hold non-standard residues; d marks the D form. Peptide text beside a SMILES is read from it. * marks the point of attachment. Sta = CC(C)C[C@H](N)[C@@H](O)CC(=O)O; Isovaleryl = CC(C)CC(=O)*"}
{"molecule": "CC(C)CC(=O)N[C@H](C(=O)N[C@H](C(=O)N[C@@H](CC(C)C)[C@@H](O)CC(=O)N[C@@H](C)C(=O)N[C@@H](CC(C)C)[C@@H](O)CC(=O)O)C(C)C)C(C)C", "note": "[Pepstatin, pepstatin] (Isovaleryl-VV[Sta]A[Sta]-OH)", "values": [{"measurement": "suppression of enzyme activity by proteolytic inhibitors", "setting": "[1]", "value": "could only partially suppress enzyme activity"}]}
{"molecule": "B1", "values": [{"measurement": "C-terminal (P1) cleavage specificity", "setting": "[2]", "value": "dominant Pro-X cleavage specificity"}, {"measurement": "weighted average peptide length for the low molecular weight fraction", "setting": "[3]", "value": 12.5}]}
{"molecule": "B2", "values": [{"measurement": "C-terminal (P1) cleavage specificity", "setting": "[2]", "value": "absence of C-terminal proline (P) cleavage"}, {"measurement": "small intestinal CD3+ intraepithelial lymphocyte (IEL) counts", "setting": "[4]; gliadin codigested with pepsin 100:1 and fluid enzyme 264:1 or nepenthesin II 100:1, pepsin alone is positive control", "value": "significant reductions in IEL counts, to levels indistinguishable from the gliadin-free diet control"}, {"measurement": "tolerability", "setting": "[4]; sensitized mice challenged three times per week for three weeks with 5 mg treated gliadin", "value": "well tolerated"}]}
{"molecule": "B3", "values": [{"measurement": "C-terminal (P1) cleavage specificity", "setting": "[2]", "value": "absence of C-terminal proline (P) cleavage"}]}
